The source of these data is paper PMC5374410, “Identification of a Potent Allosteric Inhibitor of Human Protein Kinase CK2 by Bacterial Surface Display Library Screening” (Pharmaceuticals, 2017).

The chains are these.
B1: recombinant human protein kinase CK2 holoenzyme coupled to fluorescein isothiocyanate (FITC) (complex)
chain 1: MSGPVPSRARVYTDVNTHRPREYWDYESHVVEWGNQDDYQLVRKLGRGKYSEVFEAINITNNEKVVVKILKPVKKKKIKREIKILENLRGGPNIITLADIVKDPVSRTPALVFEHVNNTDFKQLYQTLTDYDIRFYMYEILKALDYCHSMGIMHRDVKPHNVMIDHEHRKLRLIDWGLAEFYHPGQEYNVRVASRYFKGPELLVDYQMYDYSLDMWSLGCMLASMIFRKEPFFHGHDNYDQLVRIAKVLGTEDLYDYIDKYNIELDPRFNDILGRHSRKRWERFVHSENQHLVSPEALDFLDKLLRYDHQSRLTAREAMEHPYFYTVVKDQARMGSSSMPGGSTPVSSANMMSGISSVPTPSPLGPLAGSPVIAAANPLGMPVPAAAGAQQ
chain 2: not shown
modifications: FITC covalently coupled to the holoenzyme, sites not stated | FITC covalently coupled to the holoenzyme, sites not stated
notes: catalytic subunit CK2α of human protein kinase CK2; regulatory subunit CK2β of human protein kinase CK2; FITC-labelled in the flow cytometry; also called CK2-FITC; fluorophore coupled CK2; source: E. coli BL21(DE3), purified (protocol of Grankowski et al. with modifications), FITC labeling Kit (Calbiochem); copies: 2 + 2

Assay [1] addresses B1. The assay is described as follows: cell-based or functional assay.
The target of assay [2] is B1. The assay can be described thus: cell-based or functional assay. The source holds these as a separate data set.
Assay [3] deals with human CK2α, catalytic subunit alone (unlabelled) (human, UniProt P68400 1-391). The assay is described as follows: cell-based or functional assay.
For assay [4], the target named is T1, human αS1-casein (170 aa) displayed on E. coli UT5600(DE3) by autodisplay (plasmid pKP10) (human, UniProt P47710 16-185).
T1 construct: human αS1-casein as autodisplay passenger, 510 nt, 170 aa as printed; Passenger between the cleaved signal peptide of the autotransporter precursor and the linker; also called full-length αS1-casein; not shown: AIDA-I autotransporter linker and β-barrel, C-terminal, kept
T1 sequence (looked up): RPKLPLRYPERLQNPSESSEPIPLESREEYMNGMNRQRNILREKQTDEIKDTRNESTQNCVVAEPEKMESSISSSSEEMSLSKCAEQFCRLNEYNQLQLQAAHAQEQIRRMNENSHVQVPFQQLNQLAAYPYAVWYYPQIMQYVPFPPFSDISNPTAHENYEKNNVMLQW
The assay can be described thus: flow cytometry on cells; E. coli UT5600(DE3) cells displaying the passenger by autodisplay incubated with fluorescein-coupled CK2 holoenzyme for 30 min at 37 °C in 50 mM Tris/HCl pH 7.4, 100 mM NaCl, 10 mM MgCl2, 1 mM DTT, 200 µM ATP; washed; excitation 488 nm, 527/30 nm filter; host strain without plasmid as control. The conditions noted are these: one partner purified.

On to DCRGLIVMIKLH [peptide B2 (free synthetic peptide)], for which the “IC50 of inhibition of the kinase activity of (unlabelled) CK2 holoenzyme, CE assay with substrate peptide …” value in assay [1] worked out at 0.8 µM. In addition, in assay [2], the “Ki, taken as equal to the IC50 of the CE kinase assay (non-competitive inhibition with α = 1)” value was 0.8 µM. Moreover, the “IC50 of inhibition of the kinase activity of the catalytic subunit CK2α alone, CE assay” value in assay [3] is 0.8 µM.

Take B1: the “fold fluorescence intensity over control cells” value in assay [4] was found to be 10 fold.
